According to article PMC12329027 (Communications Chemistry, 2025):

Biological target: the molecule itself
Assay: cryo-EM structure

B1: full-length human αA-crystallin carrying the pathological mutation R116C (natural protein)
chain: MDVTIQHPWFKRTLGPFYPSRLFDQFFGEGLFEYDLLPFLSSTISPYYRQSLFRTVLDSGISEVRSDRDKFVIFLDVKHFSPEDLTVKVQDDFVEIHGKHNERQDDHGYISREFHCRYRLPSNVDQSALSCSLSADGMLTFCGPKIQTGLDATHAERAIPVSREEKPTSAPSS
binding result: binds
